This note sets out measurements from paper PMC5159557 (Nucleic Acids Research, 2016).

Common to all, as to assay: native MS
Assay [1] concerns the target Cas7 subunit of Escherichia coli type I-E Cascade (Escherichia coli).
The target in assay [2] is T1, Cas5 subunit of Escherichia coli type I-E Cascade (Escherichia coli, UniProt Q46898 1-224).
T1 sequence: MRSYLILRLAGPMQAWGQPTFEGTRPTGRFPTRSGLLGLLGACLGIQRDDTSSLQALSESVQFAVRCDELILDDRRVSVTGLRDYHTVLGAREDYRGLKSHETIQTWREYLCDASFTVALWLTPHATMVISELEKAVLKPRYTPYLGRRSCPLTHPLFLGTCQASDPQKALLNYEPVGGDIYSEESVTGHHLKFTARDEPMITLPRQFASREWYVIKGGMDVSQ

Assay [3] has as its target T2, Cas6e subunit of Escherichia coli type I-E Cascade (Escherichia coli, UniProt Q46897 1-199).
T2 sequence: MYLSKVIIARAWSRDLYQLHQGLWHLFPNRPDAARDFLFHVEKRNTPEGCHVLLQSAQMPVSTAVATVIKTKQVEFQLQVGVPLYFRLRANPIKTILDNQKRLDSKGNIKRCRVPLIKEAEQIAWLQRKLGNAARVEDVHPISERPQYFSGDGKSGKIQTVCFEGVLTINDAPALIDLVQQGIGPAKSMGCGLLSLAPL

Usually stoichiometry N stands for the number of molecules, sites or subunits per partner or assembly.

Take “Cas7 subunit of Escherichia coli type I-E Cascade (natural protein)”: the stoichiometry N in assay [1] is 6.

B1: Cse2 subunit of Escherichia coli type I-E Cascade, N-terminally fused to Strep-Tag II (natural protein)
chain: MADEIDAMALYRAWQQLDNGSCAQIRRVSEPDELRDIPAFYRLVQPFGWENPRHQQALLRMVFCLSAGKNVIRHQDKKSEQTTGISLGRALANSGRINERRIFQLIRADRTADMVQLRRLLTHAEPVLDWPLMARMLTWWGKRERQQLLEDFVLTTNKNA
B1: the binding result in assay [2] and in assay [3] was “binds” each time.
